Tests used:
[1] = target: CsuA/B (wild type, co-expressed with the CsuC chaperone) (Acinetobacter baumannii); test: pull-down
[2] = target: CsuA/B Arg104Cys (in Csu pili) (Acinetobacter baumannii); test: optical tweezers force spectroscopy; single pili on E. coli cells mounted on a bead, polystyrene probe bead; extension at a constant speed of 50 nm/s; force of region II (clinch opening)
[3] = target: CsuA/B Val2Ala (in Csu pili) (Acinetobacter baumannii); test: as above
[4] = target: CsuA/B, major subunit of the Csu pilus rod (wild type, in Csu pili) (Acinetobacter baumannii); test: as above
[5] = target: FimD NTD (Escherichia coli) (UniProt P30130); details: cited from earlier work
FimD (Escherichia coli) = FimD (Escherichia coli) (UniProt P30130); details: cited from earlier work

**Q.** Which stoichiometry N [1] does the source give for “CsuA/B (wild type, co-expressed with the CsuC chaperone) (natural protein)” here?
**A.** 1 to 8

**Q.** For “CsuA/B Arg104Cys (in Csu pili) (natural protein)”, which clinch opening force [2] is on record?
**A.** 19.8 pN

**Q.** For “CsuA/B Val2Ala (in Csu pili) (natural protein)”, which clinch opening force [3] is on record?
**A.** 15 pN

**Q.** Which clinch opening force [4] does the source give for “CsuA/B, major subunit of the Csu pilus rod (wild type, in Csu pili) (natural protein)” here?
**A.** 23 pN

**Q.** Which Kd [5] does the source give for FimC-FimH complex (from UniProt P31697) here?
**A.** 960 nM

**Q.** What about the Kd (FimD (Escherichia coli)) of the same substance?
**A.** 12.5 nM
